Data from patent publication US20260098070A1 (DEM BIOPHARMA, published 2026).
No end group written: not given here. *: point of attachment. Biotin = O=C1N[C@H]2[C@H](CS[C@H]2CCCCC(=O)*)N1

B1: aglycosylated scrambled hSMAGP ECD peptide (peptide)
peptide: TRTTLIMESTTPALMLLEPLGSPQDAPTSTEEAPSLK(Biotin)-NH2
modifications: N-terminus assumed
SMILES: CC[C@H](C)[C@H](NC(=O)[C@H](CC(C)C)NC(=O)[C@@H](NC(=O)[C@@H](NC(=O)[C@H](CCCNC(=N)N)NC(=O)[C@@H](N)[C@@H](C)O)[C@@H](C)O)[C@@H](C)O)C(=O)N[C@@H](CCSC)C(=O)N[C@@H](CCC(=O)O)C(=O)N[C@@H](CO)C(=O)N[C@H](C(=O)N[C@H](C(=O)N1CCC[C@H]1C(=O)N[C@@H](C)C(=O)N[C@@H](CC(C)C)C(=O)N[C@@H](CCSC)C(=O)N[C@@H](CC(C)C)C(=O)N[C@@H](CC(C)C)C(=O)N[C@@H](CCC(=O)O)C(=O)N1CCC[C@H]1C(=O)N[C@@H](CC(C)C)C(=O)NCC(=O)N[C@@H](CO)C(=O)N1CCC[C@H]1C(=O)N[C@@H](CCC(N)=O)C(=O)N[C@@H](CC(=O)O)C(=O)N[C@@H](C)C(=O)N1CCC[C@H]1C(=O)N[C@H](C(=O)N[C@@H](CO)C(=O)N[C@H](C(=O)N[C@@H](CCC(=O)O)C(=O)N[C@@H](CCC(=O)O)C(=O)N[C@@H](C)C(=O)N1CCC[C@H]1C(=O)N[C@@H](CO)C(=O)N[C@@H](CC(C)C)C(=O)N[C@@H](CCCCNC(=O)CCCC[C@@H]1SC[C@@H]2NC(=O)N[C@@H]21)C(N)=O)[C@@H](C)O)[C@@H](C)O)[C@@H](C)O)[C@@H](C)O
notes: Pre-incubated with HRP-conjugated streptavidin before addition to the plates; also called scrambled control

Legend:
[1] = biological target: CLEC10A expressed on transfected HEK293 cells (human) (UniProt Q8IUN9); test: flow cytometry, live HEK293 transfectants, 5 µg/mL probe in PBS+Ca2+/Mg2+, AF647 anti-human Fc
[2] = biological target: T1, CD177 ECD-Fc (CD177 extracellular domain with Fc tag) (UniProt Q8N6Q3 22-408, limits assumed); test: ELISA, immobilized CD177 ECD-Fc, biotinylated peptide pre-incubated with HRP-streptavidin
T1 construct: extracellular domain; also called CD177-Fc; recombinant CD177 ECD; not shown: Fc tag
T1 sequence (looked up): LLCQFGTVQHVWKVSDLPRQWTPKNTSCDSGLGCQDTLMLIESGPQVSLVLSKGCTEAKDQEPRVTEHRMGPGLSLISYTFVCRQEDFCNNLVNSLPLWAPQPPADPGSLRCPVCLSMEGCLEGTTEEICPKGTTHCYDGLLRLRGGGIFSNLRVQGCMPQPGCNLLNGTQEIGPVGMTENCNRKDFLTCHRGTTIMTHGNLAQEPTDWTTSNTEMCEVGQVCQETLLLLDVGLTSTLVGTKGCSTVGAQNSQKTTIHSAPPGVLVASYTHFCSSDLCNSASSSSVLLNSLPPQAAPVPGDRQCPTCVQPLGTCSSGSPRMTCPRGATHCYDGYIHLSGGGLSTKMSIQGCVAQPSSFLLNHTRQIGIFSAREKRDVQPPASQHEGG
Method: To evaluate the binding of aglycosylated hSMAGP ECD to CD177, an hSMAGP ECD peptide (H2N-[…]-Biotin-amide (SEQ ID NO: 62)) was chemically synthesized. An extra lysine residue was added to the C terminus to facilitate biotinylation. Another peptide, with a scrambled hSMAGP ECD sequence (H2N-[…]-Biotin-amide (SEQ ID NO: 63)), was synthesized as a control. Peptide binding to the recombinant CD177 ECD-Fc (CD177 extracellular domain with Fc tag) or hIgG1-Fc (IgG1 domain with Fc tag) negative control was evaluated in an enzyme-linked immunosorbent assay (ELISA). CD177 ECD-Fc and hIgG1-Fc were immobilized to separate Corning 96-well Clear Flat Bottom Polystyrene High Bind Microplates at 4° C. overnight in PBS. Plates were blocked using 5% skim milk. Biotinylated hSMAGP ECD peptide or the scrambled control (10 μg/ml) was pre-incubated with HRP-conjugated streptavidin (5 μg/ml) and added to the plates. In a control assay, an anti-CD177 antibody (Biolegend Cat #315802; 10 μg/ml) was premixed with the biotinylated SMAGP ECD peptide. The signal was developed using TMB substrate. The assay was performed in triplicate.

Chain of CLEC10A expressed on transfected HEK293 cells (human) (Q8IUN9 whole entry, the tested form may be a part): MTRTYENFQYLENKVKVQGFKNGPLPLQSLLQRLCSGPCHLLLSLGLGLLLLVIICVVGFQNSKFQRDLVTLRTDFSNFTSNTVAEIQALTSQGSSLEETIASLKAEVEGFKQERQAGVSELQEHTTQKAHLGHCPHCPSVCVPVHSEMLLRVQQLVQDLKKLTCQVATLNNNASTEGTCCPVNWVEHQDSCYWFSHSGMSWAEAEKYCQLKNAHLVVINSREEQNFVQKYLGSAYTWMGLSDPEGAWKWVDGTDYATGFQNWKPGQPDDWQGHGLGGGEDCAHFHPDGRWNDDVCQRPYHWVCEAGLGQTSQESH

Row | Molecule | fold change in median fluorescence intensity over control cells [1] | binding result [2]
1 | hSMAGP ECD-hIgG1 Fc (Fc fusion) | 3.3 fold | 
2 | B1 |  | no binding (tested: 10 µg/ml)
